Experimental data from EP1739090A2 (Biogen Idec MA Inc., dated 2007).

T1: IFNAR2/Fc fusion protein (extracellular domain of the human IFNAR2 receptor chain fused to the hinge, CH2 and … (human, UniProt P48551 27-243))
T1 construct: extracellular domain; Expressed in CHO cells, purified on protein A, captured on plates by mouse anti-human IgG1 mAb CDG5-AA9; also called IFNAR2-ectodomain/Fc fusion protein; IFNAR/Fc; not shown: human IgG1 heavy chain constant region: hinge, CH2 and CH3 domains
T1 sequence (looked up): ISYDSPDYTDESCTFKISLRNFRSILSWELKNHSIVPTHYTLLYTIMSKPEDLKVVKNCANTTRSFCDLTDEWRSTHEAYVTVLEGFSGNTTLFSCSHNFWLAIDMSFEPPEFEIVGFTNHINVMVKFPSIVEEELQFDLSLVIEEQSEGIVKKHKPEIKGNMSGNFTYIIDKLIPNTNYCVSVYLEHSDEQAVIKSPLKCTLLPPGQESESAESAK

T2: type I interferon cell surface receptor complex (IFNAR1/2 complex) expressed on Daudi Burkitt's lymphoma cells (human, UniProt P17181 28-557; P48551 27-515)
T2 construct: whole, on cells; Endogenous receptor of human Daudi cells; both chains together comprise the receptor for interferon-beta; also called IFNAR1/2 cell surface receptor; cognate receptor on Daudi cells
T2 sequence (looked up) 1: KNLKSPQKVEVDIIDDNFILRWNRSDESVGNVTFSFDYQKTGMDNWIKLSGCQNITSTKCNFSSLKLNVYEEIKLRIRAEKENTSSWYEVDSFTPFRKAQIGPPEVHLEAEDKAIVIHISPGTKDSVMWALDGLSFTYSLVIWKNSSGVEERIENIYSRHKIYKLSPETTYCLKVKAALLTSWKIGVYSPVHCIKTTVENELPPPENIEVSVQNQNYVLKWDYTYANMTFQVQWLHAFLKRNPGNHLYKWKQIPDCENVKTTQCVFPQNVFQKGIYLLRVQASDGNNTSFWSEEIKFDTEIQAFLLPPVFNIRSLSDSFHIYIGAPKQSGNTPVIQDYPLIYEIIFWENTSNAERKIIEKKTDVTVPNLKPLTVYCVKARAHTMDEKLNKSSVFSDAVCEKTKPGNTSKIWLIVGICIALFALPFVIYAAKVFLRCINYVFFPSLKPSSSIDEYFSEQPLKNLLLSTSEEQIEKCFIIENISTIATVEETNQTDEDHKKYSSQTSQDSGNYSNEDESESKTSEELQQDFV
T2 sequence (looked up) 2: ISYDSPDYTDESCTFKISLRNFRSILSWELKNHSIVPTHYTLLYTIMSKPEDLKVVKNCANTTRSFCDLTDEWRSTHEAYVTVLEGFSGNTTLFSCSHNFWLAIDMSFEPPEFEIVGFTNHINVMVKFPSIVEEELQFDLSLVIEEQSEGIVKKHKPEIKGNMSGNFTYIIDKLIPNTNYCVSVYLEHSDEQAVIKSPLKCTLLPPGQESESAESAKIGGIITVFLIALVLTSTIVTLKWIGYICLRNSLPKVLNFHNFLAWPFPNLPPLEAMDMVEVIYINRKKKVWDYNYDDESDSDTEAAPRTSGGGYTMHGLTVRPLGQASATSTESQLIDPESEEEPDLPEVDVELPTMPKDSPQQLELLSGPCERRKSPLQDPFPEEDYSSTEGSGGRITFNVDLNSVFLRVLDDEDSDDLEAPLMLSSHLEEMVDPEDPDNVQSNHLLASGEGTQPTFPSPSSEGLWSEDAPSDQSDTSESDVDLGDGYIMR


Columns and labels:
[1] = biological target: T1, IFNAR2/Fc fusion protein (extracellular …); assay: ELISA on captured IFNAR2/Fc; reference of the assay, EC50 not given
[2] = biological target: T2, type I interferon cell surface receptor …; assay: FACS on Daudi cells, inhibition of EA12 staining; reference of the assay, value not given
[3] = biological target: T1, IFNAR2/Fc fusion protein (extracellular …); assay: ELISA on captured IFNAR2/Fc
[4] = biological target: T1, IFNAR2/Fc fusion protein (extracellular …); assay: ELISA on IFNAR2/Fc captured by anti-human IgG1 mAb

Binder | binding result [1] | binding result [2] | concentration without binding, fold over the w.t. his-IFN-beta EC50 [3] [fold] | binding result [4]
histidine tagged wild-type interferon-beta-1a (ligand, also called his IFN-beta; His6-tagged) SGGHHHHHHSSGDDDDKMSYNLLGFLQRSSNFQCQKLLWQLNGRLEYCLKDRMNFDIPEEIKQLQQFQKEDAALTIYEMLQNIFAIFRQDSSSTGWNETIVENLLANVYHQINHLKTVLEEKLEKEDFTRGKLMSSLHLKRYYGRILHYLKAKEYSHCAWTIVRVEILRNFYFINRLTGYLRN | binds | binds | – | –
his tagged-interferon-beta alanine substitution mutant A2 (ligand, Tested as conditioned medium of EBNA 293 cells) SGGHHHHHHSSGDDDDKMSYNLLGFLQRSSNAACAALLAALNGRLEYCLKDRMNFDIPEEIKQLQQFQKEDAALTIYEMLQNIFAIFRQDSSSTGWNETIVENLLANVYHQINHLKTVLEEKLEKEDFTRGKLMSSLHLKRYYGRILHYLKAKEYSHCAWTIVRVEILRNFYFINRLTGYLRN | – | – | 500 | no binding
his tagged-interferon-beta alanine substitution mutant AB1 (ligand, Tested as conditioned medium of EBNA 293 cells) SGGHHHHHHSSGDDDDKMSYNLLGFLQRSSNFQCQKLLWQLNGRAAACAADRMNFDIPEEIKQLQQFQKEDAALTIYEMLQNIFAIFRQDSSSTGWNETIVENLLANVYHQINHLKTVLEEKLEKEDFTRGKLMSSLHLKRYYGRILHYLKAKEYSHCAWTIVRVEILRNFYFINRLTGYLRN | – | – | > 500 | no binding
his tagged-interferon-beta alanine substitution mutant AB2 (ligand, Tested as conditioned medium of EBNA 293 cells) SGGHHHHHHSSGDDDDKMSYNLLGFLQRSSNFQCQKLLWQLNGRLEYCLKDRAAFAIPAEIKQLQQFQKEDAALTIYEMLQNIFAIFRQDSSSTGWNETIVENLLANVYHQINHLKTVLEEKLEKEDFTRGKLMSSLHLKRYYGRILHYLKAKEYSHCAWTIVRVEILRNFYFINRLTGYLRN | – | – | > 500 | no binding
his tagged-interferon-beta alanine substitution mutant E (ligand, Tested as conditioned medium of EBNA 293 cells) SGGHHHHHHSSGDDDDKMSYNLLGFLQRSSNFQCQKLLWQLNGRLEYCLKDRMNFDIPEEIKQLQQFQKEDAALTIYEMLQNIFAIFRQDSSSTGWNETIVENLLANVYHQINHLKTVLEEKLEKEDFTRGKLMSSLHLKRYYGRILHYLKAKEYSHCAWTIVRAEILANFAFIARLTGYLRN | – | – | > 500 | no binding
